# Patent US20260008815A1, “CYCLIC PEPTIDE OR SALT THEREOF, AND USES THEREOF” (FUJIFILM Corporation, priority 2023, published 2026)
# Bridge positions count the residues as written; N and C are the ends. Ends that are not written are not given here. COCH2 = acetyl group that carries the bridge
# Biological target: T1, Recombinant Human FGFR2 alpha (IIIc) Fc Chimera Protein, CF (R&D systems, 712-FR-050) (human, UniProt P21802 22-377)
# T1 construct: bought; not shown: Fc part of the chimera
# Assay: ELISA on plate-bound FGFR2-Fc
# In short: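 Plate-immobilized FGFR2 alpha (IIIc)-Fc (5 ng/well) incubated with peptide 3 h at room temperature, then anti-Myc antibody 2 h and chemiluminescent ELISA substrate. Signal corrected by subtracting FGFR-free wells; binding affinity scored into categories from the dose-response.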
# T1 sequence (P21802 22-377, change not shown): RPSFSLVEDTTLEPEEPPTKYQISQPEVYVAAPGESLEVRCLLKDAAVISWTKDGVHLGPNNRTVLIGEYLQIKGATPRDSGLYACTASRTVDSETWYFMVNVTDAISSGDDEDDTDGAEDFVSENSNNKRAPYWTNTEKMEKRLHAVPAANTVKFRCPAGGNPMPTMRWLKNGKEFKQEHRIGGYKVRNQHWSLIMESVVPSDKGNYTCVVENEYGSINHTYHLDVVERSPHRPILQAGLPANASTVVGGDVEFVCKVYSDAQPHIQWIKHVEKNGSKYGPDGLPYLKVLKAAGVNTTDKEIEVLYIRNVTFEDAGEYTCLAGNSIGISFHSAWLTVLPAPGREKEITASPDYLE
row,"ELISA luminescence signal at 10 nmol/L peptide, relative to SEQ ID NO: 47 (=1) [ratio]",Binder
1,≥ 0.7,YCEENYLDPEQYQYFSYFK(COCH2)Y (thioether 2-19 (inferred)) [cyclic peptide SEQ ID NO: 285]
2,≥ 0.7,YCEENYLDPEQYQYFIDFK(COCH2)Y (thioether 2-19 (inferred)) [cyclic peptide SEQ ID NO: 302]
3,≥ 0.7,YCEENYLDPEQYQYFIYFK(COCH2)S (thioether 2-19 (inferred)) [cyclic peptide SEQ ID NO: 316]
4,≥ 0.7,YCEENYLDPEQYQYFHYFK(COCH2)Y (thioether 2-19 (inferred)) [cyclic peptide SEQ ID NO: 290]
5,≥ 0.7,YCEENYLDPEQYQYFIYFK(COCH2)F (thioether 2-19 (inferred)) [cyclic peptide SEQ ID NO: 312]
6,≥ 0.7,YCEENYLDPEQYQYFIHFK(COCH2)Y (thioether 2-19 (inferred)) [cyclic peptide SEQ ID NO: 305]
7,≥ 0.7,YCEENYLDPEQYQYFIYFK(COCH2)N (thioether 2-19 (inferred)) [cyclic peptide SEQ ID NO: 314]
8,≥ 0.7,YCEENYLDPEQYQYFEYFK(COCH2)Y (thioether 2-19 (inferred)) [cyclic peptide SEQ ID NO: 288]
9,≥ 0.7,YCEENYLDPEQYQYFIYFK(COCH2)T (thioether 2-19 (inferred)) [cyclic peptide SEQ ID NO: 317]
10,≥ 0.7,YCEENYLDPEQYQYFISFK(COCH2)Y (thioether 2-19 (inferred)) [cyclic peptide SEQ ID NO: 300]
11,≥ 0.7,YCEENYLDPEQYQYFIRFK(COCH2)Y (thioether 2-19 (inferred)) [cyclic peptide SEQ ID NO: 304]
12,0.5 to 0.7,YCEENYLDPEQYQYFIIFK(COCH2)Y (thioether 2-19 (inferred)) [cyclic peptide SEQ ID NO: 294]
13,≥ 0.7,YCEENYLDPEQYQYFIYFK(COCH2)G (thioether 2-19 (inferred)) [cyclic peptide SEQ ID NO: 308]
14,≥ 0.7,YCEENYLDPEQYQYFINFK(COCH2)Y (thioether 2-19 (inferred)) [cyclic peptide SEQ ID NO: 298]
15,≥ 0.7,YCEENYLDPEQYQYFDYFK(COCH2)Y (thioether 2-19 (inferred)) [cyclic peptide SEQ ID NO: 287]
16,≥ 0.7,YCEENYLDPEQYQYFIYFK(COCH2)W (thioether 2-19 (inferred)) [cyclic peptide SEQ ID NO: 313]
17,≥ 0.7,YCEENYLDPEQYQYFIYYK(COCH2)Y (thioether 2-19 (inferred)) [cyclic peptide SEQ ID NO: 306]

row,"ELISA luminescence signal at 10 nmol/L peptide, relative to SEQ ID NO: 47 (=1) [ratio]",Binder
1,≥ 0.7,YCEENYLDPEQYQYFIYWK(COCH2)Y (thioether 2-19 (inferred)) [cyclic peptide SEQ ID NO: 307]
2,≥ 0.7,YCEENYLDPEQYQYFIYFK(COCH2)V (thioether 2-19 (inferred)) [cyclic peptide SEQ ID NO: 311]
3,≥ 0.7,YCEENYLDPEQYQYFIYFK(COCH2)Q (thioether 2-19 (inferred)) [cyclic peptide SEQ ID NO: 315]
4,≥ 0.7,YCEENYLDPEQYQYFIYFK(COCH2)I (thioether 2-19 (inferred)) [cyclic peptide SEQ ID NO: 310]
5,≥ 0.7,YCEENYLDPEQYQYFRYFK(COCH2)Y (thioether 2-19 (inferred)) [cyclic peptide SEQ ID NO: 289]
6,0.1 to 0.5,YCEENYLDPEQYQYFIPFK(COCH2)Y (thioether 2-19 (inferred)) [cyclic peptide SEQ ID NO: 292]
7,≥ 0.7,YCEENYLDPEQYQYFIWFK(COCH2)Y (thioether 2-19 (inferred)) [cyclic peptide SEQ ID NO: 297]
8,≥ 0.7,YCEENYLDPEQYQYFIQFK(COCH2)Y (thioether 2-19 (inferred)) [cyclic peptide SEQ ID NO: 299]
9,≥ 0.7,YCEENYLDPEQYQYFITFK(COCH2)Y (thioether 2-19 (inferred)) [cyclic peptide SEQ ID NO: 301]
10,≥ 0.7,YCEENYLDPEQYQYFIEFK(COCH2)Y (thioether 2-19 (inferred)) [cyclic peptide SEQ ID NO: 303]
11,0.5 to 0.7,YCEENYLDPEQYQYFIGFK(COCH2)Y (thioether 2-19 (inferred)) [cyclic peptide SEQ ID NO: 291]
12,≥ 0.7,YCEENYLDPEQYQYFTYFK(COCH2)Y (thioether 2-19 (inferred)) [cyclic peptide SEQ ID NO: 286]
13,≥ 0.7,YCEENYLDPEQYQYFIVFK(COCH2)Y (thioether 2-19 (inferred)) [cyclic peptide SEQ ID NO: 295]
14,≥ 0.7,YCEENYLDPEQYQYFIFFK(COCH2)Y (thioether 2-19 (inferred)) [cyclic peptide SEQ ID NO: 296]
15,≥ 0.7,YCEENYLDPEQYQYFIYFK(COCH2)L (thioether 2-19 (inferred)) [cyclic peptide SEQ ID NO: 309]
16,≥ 0.7,YCEENYLDPEQYQYFILFK(COCH2)Y (thioether 2-19 (inferred)) [cyclic peptide SEQ ID NO: 293]
